Reference: the nanobody polyreactivity screen of Harvey et al. (2022)

Test: yeast display, Sf9 membrane polyspecificity reagent, FACS + sequencing; frameworks hold sequencing errors
Outline: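 Nanobodies from a synthetic yeast display library (Saccharomyces cerevisiae BJ5465), induced 36–48 hours with galactose, were stained 1 hour at 4 °C with 10% biotinylated, detergent-solubilized Sf9 membrane reagent, enriched on streptavidin microbeads, then FACS-sorted. Anti-HA (expression) and streptavidin (reagent binding) fluorescence set low and high (top ~1%) gates. Polyreactivity labels come from the gate of origin. Genes were colony-PCR amplified, MiSeq 2 × 250 sequenced and filtered by CDR length.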

Question: For “QVQLVESGGGLVQAGGSLRLSCAASGRTFRIYAEGWYRQPPGKERELVARITWSGGRTYYADSVKGRFTISRDNAQNTVYLQMNSLKPEDTAVYYCNAGGSWEFDYWGQGTQVTVSS”, which “polyreactivity (PSR sort gate)” value is on record?
Answer: The value was “low polyreactivity”.

Question: For “QVQLVESGGGLVQAGGSLRLSCAASGRIFTRYAMGWYRQAPGKERELVDGITSRGGSTYYADSVKGRYTISRDNAKNTVYLQMNSLKPEDTAVYYCNKRYTGENDYWGQGTQVTVSS”, which “polyreactivity (PSR sort gate)” value is on record?
Answer: The value was “high polyreactivity”.

Question: Which “polyreactivity (PSR sort gate)” value does the source give for “QVQLVESGGGLVQAGVSLRLSCAASGSTFYWYAMGWYRQAPGKERELVAAITYSSGRTYYADSEKGRFTISRDNAKNTVYLQMNSLKPEDTAVYYCGWSALNGYDYWGQGTQVTVSS” here?
Answer: The value was “high polyreactivity”.

Question: With “QVQLVESGGGSVQAGGRLRLRCAASGLIFYYYAMGWYRQAPGKERELVADIDRGGDTYYADSVKGRFTISRDNAKNNVYLQMNSLKPEDTEVYYCAAVDSYGYVPVFGYWGQGTQVTVSS” as the sequence, how does the “polyreactivity (PSR sort gate)” value read?
Answer: The value was “low polyreactivity”.

Question: Which “polyreactivity (PSR sort gate)” value does the source give for “QVQLVESGGGLVQAGCSLRLSWAASGRIFRPNSMGWYRQAPGKERELVAAITSNGGRTYYADSVKGRFTISRDNAKNTVYLQMNSLKPEDTAVYYCAKRVWYYSHKYDYWGQGTQVTVSS” here?
Answer: Its value is “high polyreactivity”.

Question: For “QVQLVESGGGLVQAGGSLRLSCAASGITFYTNAMGWYRQAPGKERELVAGISSSSGSTYYADSVKGRFTISRDNAKNTVYLQMNSLKPEDTAVYYCAADQDSTASDYKEYGYWGQGTQVTVSS”, which “polyreactivity (PSR sort gate)” value is on record?
Answer: The value was “low polyreactivity”.

Question: For “QVQLVESGGGLVQAGGSLRLSSAASGRTFYLNAMGWYRQAPGKERELVAAIRISGGSTYYADSVKGRFTISRDNAKNTVYLQMKSLKPEDTAVYYCIAGPYHALSPTVSEYGYWGQGSQVTVSS”, which “polyreactivity (PSR sort gate)” value is on record?
Answer: Its value is “low polyreactivity”.

Question: With “QVHLVESGGGLVQAGGSLRLSCAASGFTFYRYAMGWYRQAPGKERELVAAISRRGVSTDYADSVKGRFTISRDNAKNTVYLQMNSLKPEDTAVYYCAASYSRGVGKFGYWGQGSQVTVSS” as the sequence, how does the “polyreactivity (PSR sort gate)” value read?
Answer: Its value is “high polyreactivity”.

Question: For “QVQLVESGGRLVQAGGSLRLSCAASGRTFTRNAMGWYRQAPGKERELVAAISWSGGSTYYADSVKGRFTISRDNAKNTVYLQMNSLKPEDTAVYYCAARIWYYNYWGQGTQVTVSS”, which “polyreactivity (PSR sort gate)” value is on record?
Answer: The value was “high polyreactivity”.

Question: Which “polyreactivity (PSR sort gate)” value does the source give for “QVQLVESCGGLVQAGGSLRLSCAATGLIIRGNDMVWYRQAPWKERELVAGINSSGSTNYADSVKVRFTISRDNAKNTVYLQMNSLKPEDTAVYYCAARAIVSFDYWGQGTQVTVSS” here?
Answer: The value was “low polyreactivity”.

Question: For “QVQLVESGGGLVQAGVSLRLICAATGSIFWRKTKGWYRQAPGKEREFVAAISTSGSTYYADSVKGRFTISRDNAKNTVYLKMNSLKPEDTAVYYCAADASRGYQREGGYWGQGTQVTVSS”, which “polyreactivity (PSR sort gate)” value is on record?
Answer: Its value is “high polyreactivity”.

Question: Which “polyreactivity (PSR sort gate)” value does the source give for “QGQLVESGGGLVQAGGSLSLSCAASGFIFSGYAMGWYRQAPGKERELVAAISTRGGRTYYADSVKGRFTISRDNAKNTVYLQMNSLKPEDTAVYYCAADSLYPELDYWGQGTQVTVSS” here?
Answer: The value was “high polyreactivity”.

Question: With “QVQLVESGGGLVQAGGSLRLSCAASGRIFRSNAMGWYRQAPGKERELVAAISQRGGSTYYADSVKGRFTISRDNAKNTVYLQINSLKPEDTAVYYCNARGRYYSGDNWGQGTQVTVSS” as the sequence, how does the “polyreactivity (PSR sort gate)” value read?
Answer: The value was “high polyreactivity”.

Question: With “QVQLVESGGGLVQAGGSLRLSCAAAGLTFEWYTMGWYRQAPGKERELVADISGDGSTYYADSVKGRFTISRDNAKNTVYLQMNSLKPEDTAVYYCAASFWGFAMGYWGQGTQVTVSS” as the sequence, how does the “polyreactivity (PSR sort gate)” value read?
Answer: Its value is “high polyreactivity”.

Question: Which “polyreactivity (PSR sort gate)” value does the source give for “QVQLVESGGGLVQAGGSLRLSCAASGLTFRYYSMGWYRQAPGKERELVAAISRRSGSTYYADSVKGRFTISGDNAKNTVYLQMNSLKPEDTAVYYCNADSTITGNLKRYDYWGQGTQVTVSS” here?
Answer: Its value is “high polyreactivity”.

Question: For “QVQLVESCGGLVQAGGSLRLSCAASGGTFGFYAMGWYRQAPGKERELVAAISRRGGSTYYADSVKGRFTISRDNAKNTVYLQMNSLKPEDTAVYYCAARVYRYRHYDYWGQGTQVTVSS”, which “polyreactivity (PSR sort gate)” value is on record?
Answer: Its value is “high polyreactivity”.

Question: For “QVQLVDSGGGLFQPGGSLRLSCAASGSTFSDNAMGWYRQAPGKERELVASISSDDGSTYADSVKGRFTISRDNAMNTVYLQMNSLKSEDTAVYYCAADGFLAIYAAEYDYWGQGTQVTVSS”, which “polyreactivity (PSR sort gate)” value is on record?
Answer: Its value is “low polyreactivity”.

Question: Which “polyreactivity (PSR sort gate)” value does the source give for “QVQLVESGGGLVQAGGSLRLSCAASGSILSVNAMGWYRQAPGKERELVAAINWSGGSTYYADSVKGRFTISRDNAKNTVYLQMNSLKPEDTAVYYCAARWRYSYVGDFDYWGQGTQVTVSS” here?
Answer: Its value is “high polyreactivity”.

Question: For “QVQLVESGGGLVQAGGSLRLSCAASGSTFVYYAMGWYRQAPGKERELVAAITGSVDSTYYADSVKGRFTISRDNAKNTVYLQMNSLKPEDTAVYYCAADTYSTYWGQGTQVTVSS”, which “polyreactivity (PSR sort gate)” value is on record?
Answer: The value was “low polyreactivity”.

Question: Which “polyreactivity (PSR sort gate)” value does the source give for “QVQLVESGGGLVQAGGSLRLICAASGRTFGTHTMGWYRQAPGKERELVAAISSRGGTTYYADSVKGRFTISRDNAKNTVYLQMNSLKPEDTAVYYSNTGTRAIQRDGFEYWGQGTQVTVSS” here?
Answer: Its value is “low polyreactivity”.

Question: For “QVQLVESGGGLVQAGGSLRLSCAASGRTFGKNAMGWYRQAPGKEREYVAAITSRGGSTYYADSVKGRFTISRDNAKNTVYLKMYSLKPDDTAFYFCNREYKRPSQRTEHYYWGQGTQVTVSS”, which “polyreactivity (PSR sort gate)” value is on record?
Answer: Its value is “low polyreactivity”.

Question: Which “polyreactivity (PSR sort gate)” value does the source give for “QVQLVESGGGLVQAGGSLRLSCAASGITIARYAMGWYRQAPGKERELVAAITRSGGRTYYADSVKGRFTISRDNAKITVYLQMKSLKPEDTAVYYCYNVTRGKNHGTKYDYWGQGTQVTVSS” here?
Answer: Its value is “high polyreactivity”.

Question: For “QVQLVESAAGLVQAGGSLRLSCAASGRISHRNAMGWSRQAPGKERELVAAITSGGSTNYADSVKGRFTISRDNAKNTVYLQMNSLKPEDTAVYYCAARRLPSTWYIYWGQGTQVTVSS”, which “polyreactivity (PSR sort gate)” value is on record?
Answer: The value was “low polyreactivity”.

Question: For “QVHLVETGGGLVQAGGSLRLSCAASGYIFGWYAMGWYRQAPGKERELVAAITRGGSTNYADSVKGRFTISRDNAKNTVYLLMNSLKPEDTAVYYCNTEDWAVGSPEVEYEYDYWGQGTQVTVSS”, which “polyreactivity (PSR sort gate)” value is on record?
Answer: The value was “low polyreactivity”.

Question: With “QVQLVESGGGLVQAGGSLRLSCAASGRTFNVNVMGWYRQAPGKERELVAAIRYTGGSTYADSVKGRFTISRDNAKNTVYLQMNSLKPEDTAVYYCNADTFFPFDHGMDYWGQGTQVTVSS” as the sequence, how does the “polyreactivity (PSR sort gate)” value read?
Answer: The value was “low polyreactivity”.

Question: For “QVQLVESGGGLVQAGGSLRLSCAASGGTFPYNAMGWYRQAPGTERELVAVITSGDGTYYADSVKGRFTNSRDNAKNTVYLQMNSLKPEDTAVDYCAAVIFWDVPYDYWGQGTQVTVSS”, which “polyreactivity (PSR sort gate)” value is on record?
Answer: Its value is “low polyreactivity”.

Question: For “QVQLVESGGGLVQAGGSLRLSCAASGSTFGNYAMGWYRQAPGKERELVAVITSAGSTYYADSVKGRFTISRDNAKNTVYLQMNSLKPDDTAVYYCNTGKHVRYYYWGQGTQVTVSS”, which “polyreactivity (PSR sort gate)” value is on record?
Answer: Its value is “low polyreactivity”.

Question: With “QVQLQGSGGGLAQAGDSLRLSCAASGTIFSEYNNGLVSPGAGQRTRTCCRYWCWGNTYYADSAKRRFTTSRDNAKNTLYLQKNSLKPEDTAVYYCAFNRPYPSRHIYRGQGTQVTVSS” as the sequence, how does the “polyreactivity (PSR sort gate)” value read?
Answer: Its value is “high polyreactivity”.

Question: Which “polyreactivity (PSR sort gate)” value does the source give for “QVQLVESGGGLVQAGGSLRLSCAASGSSKLRLWDGIDRRLGQKGSWLPLFVLVVLRNYADSVKGRFTISSDNAKNTVYLQMNSLKPEDTAVYYCAATPIGSGGWGDYWGQGTQVTVSS” here?
Answer: Its value is “low polyreactivity”.

Question: For “QVQLVESGGGLVQAGGSLRLSCAASGGIIGWYAMGWYRQAPGKERELVAAINWSGADTYYADSVKGRFTISRDNAKNTVYLQMNSLKPEDTAVYYCAADGHKYRMDYWGQGTQVTVSS”, which “polyreactivity (PSR sort gate)” value is on record?
Answer: The value was “low polyreactivity”.

Question: Which “polyreactivity (PSR sort gate)” value does the source give for “QVQLVESGGGLVQAGGSLRLSCAASGITFDKYAMGWYRQAPGKERELVAAISWGGGRTYYADSVKGRFTISRDNAKNTVYLQMNSLKPEDTAVYYCATSHGLYTRWYDYWGQGTQVTVSS” here?
Answer: Its value is “high polyreactivity”.

Question: Which “polyreactivity (PSR sort gate)” value does the source give for “QVQLVESGGGLVQAGGSLRLSCAASGRTFYYNAMGWYRQAPGKERELVAAISSGDTTKYADSVKGRFTISRDNAKNTVYLQMNSLKPEDTAVYYCAAVYQSYTYYLPKYWSFYQNDYWGLGTQVTVSS” here?
Answer: Its value is “low polyreactivity”.
